Assay results reported in article PMC3605141, “NODULE INCEPTION Directly Targets NF-Y Subunit Genes to Regulate Essential Processes of Root Nodule Development in Lotus japonicus”.

T1: NIN(520-878)-myc (C-ter) (Lotus japonicus) (UniProt Q9S7B1)
T1 sequence: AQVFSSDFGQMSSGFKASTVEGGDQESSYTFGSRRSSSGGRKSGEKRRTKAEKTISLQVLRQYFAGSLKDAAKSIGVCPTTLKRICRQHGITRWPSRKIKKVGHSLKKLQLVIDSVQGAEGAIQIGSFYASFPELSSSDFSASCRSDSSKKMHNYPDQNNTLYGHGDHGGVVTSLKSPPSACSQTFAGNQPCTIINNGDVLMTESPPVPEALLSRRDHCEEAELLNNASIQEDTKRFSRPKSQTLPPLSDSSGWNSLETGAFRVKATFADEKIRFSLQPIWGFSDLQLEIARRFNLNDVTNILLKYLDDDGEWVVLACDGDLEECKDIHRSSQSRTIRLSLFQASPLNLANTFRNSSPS

T2: NIN-myc (Full) (Lotus japonicus) (UniProt Q9S7B1)
T2 sequence: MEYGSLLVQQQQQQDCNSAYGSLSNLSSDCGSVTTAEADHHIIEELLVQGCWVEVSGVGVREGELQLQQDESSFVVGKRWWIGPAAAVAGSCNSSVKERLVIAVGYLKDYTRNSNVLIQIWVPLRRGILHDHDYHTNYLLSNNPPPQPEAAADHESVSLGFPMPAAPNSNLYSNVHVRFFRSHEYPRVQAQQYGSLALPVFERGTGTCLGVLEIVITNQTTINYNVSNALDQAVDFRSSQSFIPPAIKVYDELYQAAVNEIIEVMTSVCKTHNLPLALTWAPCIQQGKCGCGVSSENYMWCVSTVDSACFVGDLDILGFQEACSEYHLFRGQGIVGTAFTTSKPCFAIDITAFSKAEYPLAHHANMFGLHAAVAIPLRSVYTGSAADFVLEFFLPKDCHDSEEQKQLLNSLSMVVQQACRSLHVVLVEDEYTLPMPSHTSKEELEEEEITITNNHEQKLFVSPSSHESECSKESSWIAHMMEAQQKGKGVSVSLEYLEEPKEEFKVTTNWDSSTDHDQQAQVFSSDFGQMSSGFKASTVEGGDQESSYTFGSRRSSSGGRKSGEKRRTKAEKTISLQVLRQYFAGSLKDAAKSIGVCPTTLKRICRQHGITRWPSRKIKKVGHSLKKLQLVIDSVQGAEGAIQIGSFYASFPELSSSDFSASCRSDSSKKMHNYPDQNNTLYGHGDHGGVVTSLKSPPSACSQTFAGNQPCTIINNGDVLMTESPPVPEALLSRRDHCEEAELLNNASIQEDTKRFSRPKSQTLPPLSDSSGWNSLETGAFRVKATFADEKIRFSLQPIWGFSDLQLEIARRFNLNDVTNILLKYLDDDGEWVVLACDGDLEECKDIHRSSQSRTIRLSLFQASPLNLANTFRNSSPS

B1: NBS-yB1a m8 (dsDNA)
DNA 1: TACTTGTATCAAAAGAGCTTTCCAAGGGATATTTC
DNA 2: GAAATATCCCTTGGAAAGCTCTTTTGATACAAGTA
B2: NBS-yB1a m12 (dsDNA)
DNA 1: TACTTGTATCTTTAGAGCTTTCGTTGGGATATTTC
DNA 2: GAAATATCCCAACGAAAGCTCTAAAGATACAAGTA
B3: probe 14 m3 (dsDNA)
DNA 1: AAACCCCATCAATTTACTTGTTAGAAAAGAGCTTTCCAAGGGATATTTC
DNA 2: GAAATATCCCTTGGAAAGCTCTTTTCTAACAAGTAAATTGATGGGGTTT
B4: probe 14 m5 (dsDNA)
DNA 1: AAACCCCATCAATTTACTTGTATCTTTAGAGCTTTCCAACCCTATTTTC
DNA 2: GAAAATAGGGTTGGAAAGCTCTAAAGATACAAGTAAATTGATGGGGTTT
B5: NBS-yB1a m13 (dsDNA)
DNA 1: TACTTGTATCTTTAGAGCTTTCCAACCCATATTTC
DNA 2: GAAATATGGGTTGGAAAGCTCTAAAGATACAAGTA
B6: NBS-yB1a m14 (dsDNA)
DNA 1: TACTTGTATCTTTAGAGCTTTCCAAGGGTATTTTC
DNA 2: GAAAATACCCTTGGAAAGCTCTAAAGATACAAGTA

Experiments:
[1] = molecular target: T1, NIN(520-878)-myc (C-ter) (Lotus japonicus); test: EMSA; conditions: 20 mM Hepes-KOH pH 7.9, 50 mM KCl, 1 mM MgCl2, 1 mM DTT, 4% glycerol, 0.1% Triton X-100, 2 ug BSA, 400 ng dIdC, 20 ul, 30 min at room temperature; 10-30 fmol …
[2] = molecular target: T2, NIN-myc (Full) (Lotus japonicus); test: EMSA; conditions: 20 mM Hepes-KOH pH 7.9, 50 mM KCl, 1 mM MgCl2, 1 mM DTT, 4% glycerol, 0.1% Triton X-100, 2 ug BSA, 400 ng dIdC, 20 ul, 30 min at room temperature; 10-30 fmol …
[3] = molecular target: NIN(520-878)-myc (C-ter) (Lotus japonicus, UniProt Q9S7B1 520-878); test: EMSA; 20 mM Hepes-KOH pH 7.9, 50 mM KCl, 1 mM MgCl2, 1 mM DTT, 4% glycerol, 0.1% Triton X-100, 2 ug BSA, 400 ng dIdC, 20 ul, 30 min at room temperature; 10-30 fmol 32P probe; conditions: protein: ivt, tags: myc

| Molecule | binding [1] | binding result ([3]; label: 32P) | also measured |
| --- | --- | --- | --- |
| TCACTTTGGTGGATGTGGATATACAATTCTTTACTTTCAATACAAAAAACC (double strand) [LjNF-YB1 probe 16] | no binding | – | – |
| TCACTTTGGTGGATGTGGATATACAATTCTTTACTTTCAATACAAAAAACCCCATCAATTTACTTGTATCTTTAGAGCTTTCCAAGGGATATTTC (double strand) [LjNF-YB1 probe 10] | binds | – | binding [2]: binds |
| TCTTTTGAGCGGCCTCAAAGGCCTTCTCAGCATCCATTAAC (double strand) [LjNF-YB1 probe 11] | no binding | – | – |
| TACAATTCTTTACTTTCAATACAAAAAACCCCATCAATTTACTTGTATCTTTAG (double strand) [LjNF-YB1 probe 15] | no binding | – | – |
| GGCCTTTGAGGCCGCTCAAAAGAGTGAAGATGAATATGAAAT (double strand) [LjNF-YB1 probe 12] | no binding | – | – |
| GTTAATGGATGCTGAGAAGGCCTTTGAGGCCGCTCAAAAGAGTGAAGATGAATATGAAATATCCCTTGGAAAGCTCTAAAG (double strand) [LjNF-YB1 probe 9] | binds | – | binding [2]: binds |
| GAGAAAATGCTAGTTTTTAAAAAGAGAACCTTTATTTTTTTAAATATTGTATTTACGAAGAAAACTGAAAAAGAACAGATGATTTCAGTTAGATTGCTTGGCCCCCTTCTTATCTGGACAGGCATTTTCCTG (double strand) [LjNF-YA1 probe 9] | binds | – | binding [2]: binds |
| AAAGAGTGAAGATGAATATGAAATATCCCTTGGAAAGCTCTAAAG (double strand) [LjNF-YB1 probe 13] | no binding | – | – |
| B1 | – | no binding | – |
| B2 | – | – | binding result ([3]; label: 32P as probe): no binding |
| B3 | – | no binding | – |
| B4 | – | no binding | – |
| B5 | – | no binding | – |
| B6 | – | no binding | – |
